Experimental data: patent publication US9073973B2, “Dye conjugates of template-fixed peptidomimetics” (Polyphor LTD., priority 2005, dated 2015)
Numbered stars: 1 amine (or outer) side, 2 acyl side, 3 side chain; on linkers, the order of the positions; unused ones are H or OH. Bridge positions count the residues as written; N and C are the ends. Square brackets hold non-standard residues; d marks the D form. Primed or numbered codes have the meaning given here. Side chains are listed from the residue outwards. Peptide text beside a SMILES is read from it. * marks the point of attachment. FITC′ = 5(6)-fluoresceinthioureido on Lys N-epsilon (Lys(FITC)); Pro(trans-4-NH2) = O=C([C@@H]1C[C@@H](N[*:3])CN1[*:1])[*:2]; 5FAM = O=C1OC2(c3ccc(O)cc3Oc3cc(O)ccc32)c2ccc(C(=O)*)cc21; Dansyl = CN(C)c1cccc2c(S(=O)(=O)*)cccc12; 2Nal = N[C@@H](Cc1ccc2ccccc2c1)C(=O)O; Cit = NC(=O)NCCC[C@H](N)C(=O)O; Ahx = NCCCCCC(=O)O

What follows are molecules tested on HELA cells (assay: Cytotoxicity assay (MTT reduction)). Details: 48 hours incubation, peptide 12.5, 25 and 50 μM.
Type: cell-based
Method: The cytotoxicity of the peptides to HELA cells (Acc57) and COS-7 cells (CRL-1651) was determined using the MTT reduction assay [see ref. 5 and 6, below]. Briefly the method was as follows: HELA cells and COS-7 cells were seeded at 7.0·10^3 and, respectively, 4.5·10^3 cells per well and grown in 96-well microtiter plates for 24 hours at 37° C. at 5% CO2. At this point, time zero (Tz) was determined by MTT reduction (see below). The supernatant of the remaining wells was discarded, and fresh medium and the peptides in serial dilutions of 12.5, 25 and 50 μM were pipetted into the wells. Each peptide concentration was assayed in triplicate. Incubation of the cells was continued for 48 hours at 37° C. at 5% CO2. Wells were then washed once with PBS, and subsequently 100 μl MTT reagent (0.5 mg/mL in medium RPMI1640 and, respectively, DMEM) was added to the wells. This was incubated at 37° C. for 2 hours and subsequently the medium was aspirated and 100 μl isopropanol was added to each well. The absorbance at 595 nm of the solubilized product was measured (OD595peptide). For each concentration averages were calculated from triplicates. The percentage of growth was calculated as follows: (OD595peptide-OD595Tz-OD595Empty well)/(OD595Tz-OD595Empty well)×100% and was plotted for each peptide concentration. […]

Molecule	Cytotoxicity LC50/GI50 Hela cells
CN(C)c1cccc2c(S(=O)(=O)NCCCC[C@@H]3NC(=O)[C@H](CCCNC(N)=O)NC(=O)[C@H](Cc4ccc(O)cc4)NC(=O)[C@@H]4CSSC[C@H](NC(=O)[C@H](CCCNC(N)=O)NC(=O)[C@H](CCCNC(=N)N)NC(=O)[C@H](Cc5ccc(O)cc5)NC(=O)[C@@H]5CCCN5C(=O)[C@H]5CCCN5C3=O)C(=O)N[C@@H](CCCNC(=N)N)C(=O)NCC(=O)N3CCC[C@@H]3C(=O)N[C@@H](CCCNC(=N)N)C(=O)N[C@@H](CCCNC(=N)N)C(=O)N[C@@H](Cc3c[nH]c5ccccc35)C(=O)N4)cccc12 [Example 1] (cyclo(YR[Cit]CRG[dP]RRWCY[Cit]K(Dansyl)[dP]P); disulfide 4-11)	31

These molecules were tested on untransfected 300-19 cells (assay: FACS analysis, untransfected cells (non-specific binding)). Details: FIG. 1; FACS at 530 nm, 10,000 cells; background/non-specific binding.
Parameters: species or system mouse
Method: (§1) CXCR4 expressing cells (5×10^6/ml) [see references 1, 2 and 3, below] were incubated for 1 hour at 4° C. in a buffer containing HBSS+1% BSA with or without peptidomimetic-dye conjugates at the appropriate concentrations. After this incubation, the cells were washed twice in the same buffer and resuspended at 4×10^6/ml in PBS and kept on ice until measurements were made. All measurements were made on a BD FACSCalibur™ instrument [see ref 4 below] at a wavelength of 530 nm and a total of 10,000 events were counted for each condition. Unlabeled CXCR4 cells and untransfected 300-19 cells were used to establish an appropriate gate for scoring positive and negative events. Four-parameter curve fitting was made from plots of % gated cells vs. concentration of fluorescent compound using Grafit (Erithacus Software).
(§2) The dotted line plot is the histogram obtained from the CXCR4 expressing cells incubated with the compound. The shift to the right on the intensity scale indicates a ˜5-fold increase in fluorescence with >80% of the cells being positive for peptidomimetic-dye conjugates.

Molecule	cells binding compound (untransfected cells)
N=C(N)NCCC[C@@H]1NC(=O)[C@@H]2CSSC[C@H](NC(=O)[C@H](Cc3c[nH]c4ccccc34)NC(=O)[C@H](CCCNC(=N)N)NC(=O)[C@H](CCCNC(=N)N)NC(=O)[C@H]3CCCN3C(=O)CNC1=O)C(=O)N[C@@H](Cc1ccc(O)cc1)C(=O)N[C@@H](CCCNC(N)=O)C(=O)N[C@@H](CCC(N)=O)C(=O)N1CCC[C@@H]1C(=O)N1C[C@H](NC(=O)CCCCCNC(=O)c3ccc4c(c3)C(=O)OC43c4ccc(O)cc4Oc4cc(O)ccc43)C[C@H]1C(=O)N[C@@H](Cc1ccc(O)cc1)C(=O)N[C@@H](CCCNC(=N)N)C(=O)N[C@@H](CCCNC(N)=O)C(=O)N2 [Example 4] (cyclo(CRG[dP]RRWCY[Cit]Q[dP][Pro(trans-4-NH2)]([Ahx-5FAM])YR[Cit]); disulfide 1-8)	0.7%

The molecules below were run on human red blood cells (hRBC) (assay: Hemolysis). Details: percent hemolysis; 100 μM peptide, 20% v/v hRBC, 1 hour at 37° C.
Type: cell-based
Method: The peptides were tested for their hemolytic activity against human red blood cells (hRBC). Fresh hRBC were washed three times with phosphate buffered saline (PBS) by centrifugation for 10 min at 2000×g. Peptides at a concentration of 100 μM were incubated with 20% v/v hRBC for 1 hour at 37° C. The final erythrocyte concentration was approximately 0.9×10^9 cells per ml. A value of 0% resp. 100% cell lysis was determined by incubation of the hRBC in the presence of PBS alone and respectively 0.1% Triton X-100 in H2O. The samples were centrifuged and the supernatant was 20-fold diluted in PBS buffer and the optical density (OD) of the sample at […] was measured. The 100% lysis value (0D540H20) gave an OD540 of approximately 1.3-1.8. Percent hemolysis was calculated as follows: (0D540peptide/OD540H20)×100%.

Molecule	Hemolysis at 100 μM
CN(C)c1cccc2c(S(=O)(=O)NCCCC[C@@H]3NC(=O)[C@H](CCCNC(N)=O)NC(=O)[C@H](Cc4ccc(O)cc4)NC(=O)[C@@H]4CSSC[C@H](NC(=O)[C@H](CCCNC(N)=O)NC(=O)[C@H](CCCNC(=N)N)NC(=O)[C@H](Cc5ccc(O)cc5)NC(=O)[C@@H]5CCCN5C(=O)[C@H]5CCCN5C3=O)C(=O)N[C@@H](CCCNC(=N)N)C(=O)NCC(=O)N3CCC[C@@H]3C(=O)N[C@@H](CCCNC(=N)N)C(=O)N[C@@H](CCCNC(=N)N)C(=O)N[C@@H](Cc3c[nH]c5ccccc35)C(=O)N4)cccc12 [Example 1] (cyclo(YR[Cit]CRG[dP]RRWCY[Cit]K(Dansyl)[dP]P); disulfide 4-11)	0

The molecules below were run against T1, CXCR4 expressing cells (Homo sapiens, UniProt P61073) (assay: FACS analysis, labeling of CXCR4 expressing cells). Details: FIG. 1; FACS fluorescence intensity at 530 nm, 10,000 cells.
T1 construct: expressed in transfected cells; host or cells: 300-19 cells (mouse pre-B), CXCR4 transfected
Type: binding
Method: as §1, §2

T1 sequence (P61073 whole entry): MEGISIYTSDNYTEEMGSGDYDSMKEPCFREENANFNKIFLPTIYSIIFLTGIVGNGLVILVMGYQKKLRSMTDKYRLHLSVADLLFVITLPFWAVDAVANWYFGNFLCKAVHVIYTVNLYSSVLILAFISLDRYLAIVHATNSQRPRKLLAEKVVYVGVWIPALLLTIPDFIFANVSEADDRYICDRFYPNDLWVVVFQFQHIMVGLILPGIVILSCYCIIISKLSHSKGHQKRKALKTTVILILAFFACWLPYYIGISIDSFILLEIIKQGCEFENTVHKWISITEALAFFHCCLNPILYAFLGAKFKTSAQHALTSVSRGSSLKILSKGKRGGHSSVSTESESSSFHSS

Molecule	increase in fluorescence (CXCR4 expressing vs untransfected cells)
N=C(N)NCCC[C@@H]1NC(=O)[C@@H]2CSSC[C@H](NC(=O)[C@H](Cc3c[nH]c4ccccc34)NC(=O)[C@H](CCCNC(=N)N)NC(=O)[C@H](CCCNC(=N)N)NC(=O)[C@H]3CCCN3C(=O)CNC1=O)C(=O)N[C@@H](Cc1ccc(O)cc1)C(=O)N[C@@H](CCCNC(N)=O)C(=O)N[C@@H](CCC(N)=O)C(=O)N1CCC[C@@H]1C(=O)N1C[C@H](NC(=O)CCCCCNC(=O)c3ccc4c(c3)C(=O)OC43c4ccc(O)cc4Oc4cc(O)ccc43)C[C@H]1C(=O)N[C@@H](Cc1ccc(O)cc1)C(=O)N[C@@H](CCCNC(=N)N)C(=O)N[C@@H](CCCNC(N)=O)C(=O)N2 [Example 4] (cyclo(CRG[dP]RRWCY[Cit]Q[dP][Pro(trans-4-NH2)]([Ahx-5FAM])YR[Cit]); disulfide 1-8)	~5 fold

Each molecule was assayed against T2, human CXCR4 (human, UniProt P61073 1-352) (assay: cell-based or functional assay). Details: not given.
T2 sequence (P61073 whole entry): as above

Molecule	IC50 (nM) Ca2+ assay (calcium mobilization induced by 10 nM SDF-1)
cyclo(LHTCRA[dP]RRYCYQK(FITC′)) (disulfide 4-11; not fully specified (C-terminus)) [Example 12]	6.9 nM
cyclo(YRTCRG[dP]RR[2Nal]CY[Cit]K) (disulfide 4-11; not fully specified (residue 14, C-terminus)) [Example 6]	37.4 nM
cyclo(HHYCRA[dP]FRFCYQK(FITC′)) (disulfide 4-11; not fully specified (C-terminus)) [Example 13]	29 nM
cyclo(HHQCSA[dP]FRYCYQK(FITC′)) (disulfide 4-11; not fully specified (C-terminus)) [Example 11]	27.5 nM
cyclo(YK[Cit]CRG[dP]RRWCY[Cit]Q) (disulfide 4-11; not fully specified (residue 2, C-terminus)) [Example 9]	500 nM
cyclo(KR[Cit]CRG[dP]RRWCY[Cit]Q) (disulfide 4-11; not fully specified (residue 1, C-terminus)) [Example 3]	16.4 nM
cyclo(SHYCRA[dP]FRFCYQK(FITC′)) (disulfide 4-11; not fully specified (C-terminus)) [Example 14]	30.4 nM
cyclo(YRKCRG[dP]RRWCY[Cit]Q) (disulfide 4-11; not fully specified (residue 3, C-terminus)) [Example 5]	4.9 nM
cyclo(YR[Cit]CRG[dP]RRWCY[Cit]K(Dansyl)) (disulfide 4-11; not fully specified (C-terminus)) [Example 1]	122 nM
cyclo(YR[Cit]CRG[dP]RRWCYKQ) (disulfide 4-11; not fully specified (residue 13, C-terminus)) [Example 8]	9.7 nM
cyclo(YRTCRG[dP]RRYCYQK(FITC′)) (disulfide 4-11; not fully specified (C-terminus)) [Example 15]	6 nM
cyclo(YRTCRG[dP]RR[2Nal]CY[Cit]K(FITC′)) (disulfide 4-11; not fully specified (C-terminus)) [Example 7]	0.9 nM
cyclo(YR[Cit]CRG[dP]RRWCY[Cit]Q) (disulfide 4-11; not fully specified (C-terminus), the dye sits on the template; also called Ex. 4) [Example 4]	13.4 nM
cyclo(YRYCRA[dP]FRFCYQK(FITC′)) (disulfide 4-11; not fully specified (C-terminus)) [Example 17]	21.8 nM
cyclo(YRTCRA[dP]RRYCYQK(FITC′)) (disulfide 4-11; not fully specified (C-terminus)) [Example 16]	4.2 nM
cyclo(YHYCSA[dP]FRYCYQK(FITC′)) (disulfide 4-11; not fully specified (C-terminus)) [Example 18]	> 500 nM

Each molecule was assayed against T2, human CXCR4 (assay: FACS at 530 nm, CXCR4 expressing cells against untransfected cells incubated with the dye conjugate). Details: not given.
Method: as §1, with “(5 ×10^6/ml)” for “(5×10^6/ml)”, “4 ×10^6/ml” for “4×10^6/ml”
The dotted line plot is the histogram obtained from the CXCR4 expressing cells incubated with the compound. The shift to the right on the intensity scale indicates a ~5-fold increase in fluorescence with >80% of the cells being positive for peptidomimetic-dye conjugates.

Molecule	fold increase in fluorescence
cyclo(YR[Cit]CRG[dP]RRWCY[Cit]Q) (disulfide 4-11; not fully specified (C-terminus), the dye sits on the template; also called Ex. 4) [Example 4]	~5 fold
